The test system of one series is hTERT-HMEC. Put plainly: percentage of EdU-negative (G0-arrested) nuclei per well, 72 h; higher = more G0 arrest. The settings on record: reference: sequence is the full UniProt precursor, the tested protein was the secreted form or ectodomain.
Another series deals with MCF7. The series is described as above. Conditions: reference: sequence is the full UniProt precursor, the tested protein was the secreted form or ectodomain.
Setting [1] is: protein concentration 0.01925 µM.
Where [2] appears, read: protein concentration 0.1925 µM.
Where [3] appears, read: protein concentration 0.0225 µM.
[4] abbreviates: protein concentration 0.03125 µM.
[5] abbreviates: protein concentration 0.3125 µM.
Setting [6] is: protein concentration 0.00771429 µM.
[7] abbreviates: protein concentration 0.0771429 µM.

± gives the standard deviation of the averaged measurements.

The values that follow come from the supplement of paper PMC11316812.
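Note: secreted proteins added to cultured cells, EdU pulse at the end, nuclei found by Hoechst imaging, EdU status from nuclear versus surrounding ring intensity ratio, PBS as neutral control.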

For the sequence “MAKGFYISKSLGILGILLGVAAVCTIIALSVVYSQEKNKNANSSPVASTTPSASATTNPASATTLDQSKAWNRYRLPNTLKPDSYRVTLRPYLTPNDRGLYVFKGSSTVRFTCKEATDVIIIHSKKLNYTLSQGHRVVLRGVGGSQPPDIDKTELVEPTEYLVVHLKGSLVKDSQYEMDSEFEGELADDLAGFYRSEYMEGNVRKVVATTQMQAADARKSFPCFDEPAMKAEFNITLIHPKDLTALSNMLPKGPSTPLPEDPNWNVTEFHTTPKMSTYLLAFIVSEFDYVEKQASNGVLIRIWARPSAIAAGHGDYALNVTGPILNFFAGHYDTPYPLPKSDQIGLPDFNAGAMENWGLVTYRENSLLFDPLSSSSSNKERVVTVIAHELAHQWFGNLVTIEWWNDLWLNEGFASYVEYLGADYAEPTWNLKDLMVLNDVYRVMAVDALASSHPLSTPASEINTPAQISELFDAISYSKGASVLRMLSSFLSEDVFKQGLASYLHTFAYQNTIYLNLWDHLQEAVNNRSIQLPTTVRDIMNRWTLQMGFPVITVDTSTGTLSQEHFLLDPDSNVTRPSEFNYVWIVPITSIRDGRQQQDYWLIDVRAQNDLFSTSGNEWVLLNLNVTGYYRVNYDEENWRKIQTQLQRDHSAIPVINRAQIINDAFNLASAHKVPVTLALNNTLFLIEERQYMPWEAALSSLSYFKLMFDRSEVYGPMKNYLKKQVTPLFIHFRNNTNNWREIPENLMDQYSEVNAISTACSNGVPECEEMVSGLFKQWMENPNNNPIHPNLRSTVYCNAIAQGGEEEWDFAWEQFRNATLVNEADKLRAALACSKELWILNRYLSYTLNPDLIRKQDATSTIISITNNVIGQGLVWDFVQSNWKKLFNDYGGGSFSFSNLIQAVTRRFSTEYELQQLEQFKKDNEETGFGSGTRALEQALEKTKANIKWVKENKEVVLQWFTENSK”, the “percentage of EdU-negative” value is 5.56 ± 1.4% in the series with hTERT-HMEC (setting [1]), 7.09 ± 0.27% in the series on hTERT-HMEC (setting [2]), 21.5 ± 1.1% in the series on MCF7 (setting [1]) and 23.6 ± 1.2% in the series with MCF7 (setting [2]).

“MAKMNLSSYILILTFSLFSQGILLSASKSIRNLDDDMVFNTFRLGKGFQKEDTAEKSVIAPSLEQYKNDESSFMNEEENKVSKNTGSKHNFLNHGLPLNLAIKPYLALKGSVAFPAENGVQNTESTQEKREIGDEENSAKFPIGRRDFDMLRCMLGRVYRPCWQV”: the “percentage of EdU-negative” value stood at 5.49 ± 0.6% with hTERT-HMEC (setting [3]), 5.82 ± 0.072% in the series on hTERT-HMEC (protein concentration 0.225 µM), 26 ± 2.4% in the series with MCF7 (setting [3]) and 26 ± 1.2% with MCF7 (protein concentration 0.225 µM).

As to “MAKSFPVFSLLSFILIHLVLSSVSGPRHWWPPRGIIKVKCPYEKVNLSWYNGTVNPCPGLYQPICGTNFITYDNPCILCVESLKSHGRIRFYHDGKC [Q6IE38]”, the “percentage of EdU-negative” value in the series on hTERT-HMEC (setting [3]) worked out at 6.19 ± 0.33%; in the series with hTERT-HMEC (protein concentration 0.225 µM) it was 6.12 ± 0.94%; in the series on MCF7 (setting [3]), 24 ± 0.13%; in the series with MCF7 (protein concentration 0.225 µM) it was 27 ± 1.2%.

Take “MAKVFSFILVTTALTMGREISALEDCAQEQMRLRAQVRLLETRVKQQQVKIKQLLQENEVQFLDKGDENTVIDLGSKRQYADCSEIFNDGYKLSGFYKIKPLQSPAEFSVYCDMSDGGGWTVIQRRSDGSENFNRGWKDYENGFGNFVQKHGEYWLGNKNLHFLTTQEDYTLKIDLADFEKNSRYAQYKNFKVGDEKNFYELNIGEYSGTAGDSLAGNFHPEVQWWASHQRMKFSTWDRDHDNYEGNCAEEDQSGWWFNRCHSANLNGVYYSGPYTAKTDNGIVWYTWHGWWYSLKSVVMKIRPNDFIPNVI”: the “percentage of EdU-negative” value with hTERT-HMEC (setting [4]) is 6.18 ± 1.3%; in the series with hTERT-HMEC (setting [5]), 5.22 ± 0.14%; with MCF7 (setting [4]), 24.5 ± 4.1%; with MCF7 (setting [5]), 22.8 ± 2.3%.

“MALAALMIALGSLGLHTWQAQAVPILPLGLAPDTFDDTYVGCAEEMEEKAAPLLKEEMAHHALLRESWEAAQETWEDKRRGLTLPPGFKAQNGIAIMVYTNSSNTLYWELNQAVRTGGGSRELYMRHFPFKALHFYLIRALQLLRGSGGCSRGPGEVVFRGVGSLRFEPKRLGDSVRLGQFASSSLDKAVAHRFGNATLFSLTTCFGAPIQAFSVFPKEREVLIPPHEVFLVTRFSQDGAQSLVTLWSYNQTCSHFNCAYLGGEKRRGCVSAPGALGTGDLHMTKRHLQQP [Q96L15]”: the “percentage of EdU-negative” value amounted to 5.18 ± 0.43% with hTERT-HMEC (protein concentration 0.016 µM), 7.23 ± 0.71% in the series on hTERT-HMEC (protein concentration 0.16 µM), 26.5 ± 3.2% in the series with MCF7 (protein concentration 0.016 µM) and 29 ± 1.5% with MCF7 (protein concentration 0.16 µM).

“MALDYLLLLLLASAVAAMEETLMDTRTATAELGWTANPASGWEEVSGYDENLNTIRTYQVCNVFEPNQNNWLLTTFINRRGAHRIYTEMRFTVRDCSSLPNVPGSCKETFNLYYYETDSVIATKKSAFWSEAPYLKVDTIAADESFSQVDFGGRLMKVNTEVRSFGPLTRNGFYLAFQDYGACMSLLSVRVFFKKCPSIVQNFAVFPETMTGAESTSLVIARGTCIPNAEEVDVPIKLYCNGDGEWMVPIGRCTCKPGYEPENSVACKACPAGTFKASQEAEGCSHCPSNSRSPAEASPICTCRTGYYRADFDPPEVACTSVPSGPRNVISIVNETSIILEWHPPRETGGRDDVTYNIICKKCRADRRSCSRCDDNVEFVPRQLGLTECRVSISSLWAHTPYTFDIQAINGVSSKSPFPPQHVSVNITTNQAAPSTVPIMHQVSATMRSITLSWPQPEQPNGIILDYEIRYYEKEHNEFNSSMARSQTNTARIDGLRPGMVYVVQVRARTVAGYGKFSGKMCFQTLTDDDYKSELREQLPLIAGSAAAGVVFVVSLVAISIVCSRKRAYSKEAVYSDKLQHYSTGRGSPGMKIYIDPFTYEDPNEAVREFAKEIDVSFVKIEEVIGAGEFGEVYKGRLKLPGKREIYVAIKTLKAGYSEKQRRDFLSEASIMGQFDHPNIIRLEGVVTKSRPVMIITEFMENGALDSFLRQNDGQFTVIQLVGMLRGIAAGMKYLAEMNYVHRDLAARNILVNSNLVCKVSDFGLSRYLQDDTSDPTYTSSLGGKIPVRWTAPEAIAYRKFTSASDVWSYGIVMWEVMSFGERPYWDMSNQDVINAIEQDYRLPPPMDCPAALHQLMLDCWQKDRNSRPRFAEIVNTLDKMIRNPASLKTVATITAVPSQPLLDRSIPDFTAFTTVDDWLSAIKMVQYRDSFLTAGFTSLQLVTQMTSEDLLRIGITLAGHQKKILNSIHSMRVQISQSPTAMA”: the “percentage of EdU-negative” value was found to be 4.82 ± 0.12% in the series with hTERT-HMEC (setting [6]), 5.86 ± 0.98% in the series with hTERT-HMEC (setting [7]), 26.7 ± 1.5% in the series with MCF7 (setting [6]) and 23.4 ± 1.5% in the series with MCF7 (setting [7]).
